From article PMC10786891, “Massively parallel profiling of RNA-targeting CRISPR-Cas13d”

T1: EsCas13d, nuclease-dead (Eubacterium siraeum, UniProt B0MS50, R295A;H300A;R849A;H854A)
T1 sequence: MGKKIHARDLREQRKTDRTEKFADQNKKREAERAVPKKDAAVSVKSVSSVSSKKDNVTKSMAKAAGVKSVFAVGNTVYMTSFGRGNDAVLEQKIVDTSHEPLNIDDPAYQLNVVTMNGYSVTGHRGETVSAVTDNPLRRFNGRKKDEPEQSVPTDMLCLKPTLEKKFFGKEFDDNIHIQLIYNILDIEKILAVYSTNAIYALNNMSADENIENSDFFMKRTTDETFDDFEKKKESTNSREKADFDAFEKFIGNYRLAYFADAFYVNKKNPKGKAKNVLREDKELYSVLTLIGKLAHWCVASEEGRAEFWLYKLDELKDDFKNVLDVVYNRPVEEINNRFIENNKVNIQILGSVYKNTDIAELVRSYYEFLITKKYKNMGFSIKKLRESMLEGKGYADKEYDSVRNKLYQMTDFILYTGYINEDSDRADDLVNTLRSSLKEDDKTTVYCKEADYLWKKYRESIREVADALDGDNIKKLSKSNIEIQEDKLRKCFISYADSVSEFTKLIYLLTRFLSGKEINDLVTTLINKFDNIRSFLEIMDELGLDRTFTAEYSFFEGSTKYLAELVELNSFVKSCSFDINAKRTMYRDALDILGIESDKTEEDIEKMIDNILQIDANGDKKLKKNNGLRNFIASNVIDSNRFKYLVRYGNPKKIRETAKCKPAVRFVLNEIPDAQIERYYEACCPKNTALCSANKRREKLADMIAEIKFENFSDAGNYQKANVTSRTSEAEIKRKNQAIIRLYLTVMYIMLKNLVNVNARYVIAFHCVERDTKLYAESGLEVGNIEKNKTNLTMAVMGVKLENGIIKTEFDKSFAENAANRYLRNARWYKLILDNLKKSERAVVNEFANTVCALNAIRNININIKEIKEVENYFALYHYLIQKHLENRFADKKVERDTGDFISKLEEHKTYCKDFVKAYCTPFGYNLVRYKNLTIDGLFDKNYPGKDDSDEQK

B1: target 3 insG 3' of 5,insU 3' of 5 (mixed)
RNA 1: CACCCGUGCAAAAUUGCAGGGGUCUAAAACGACCUGAAUAUUUCAGAUCAAA
RNA 2: GGGAAUGGAUCCACAUCUACGAAUUCGUUUUUGAUCUGAAAUAUUCAGUGGUCUGCAGAUCGGAAGAGCACACGU
B2: target 3 insA 3' of 4,insC 3' of 4 (mixed)
RNA 1: CACCCGUGCAAAAUUGCAGGGGUCUAAAACGACCUGAAUAUUUCAGAUCAAA
RNA 2: GGGAAUGGAUCCACAUCUACGAAUUCGUUUUUGAUCUGAAAUAUUCAGACGUCUGCAGAUCGGAAGAGCACACGU
B3: target 3 insG 3' of 22,insU 3' of 22 (mixed)
RNA 1: CACCCGUGCAAAAUUGCAGGGGUCUAAAACGACCUGAAUAUUUCAGAUCAAA
RNA 2: GGGAAUGGAUCCACAUCUACGAAUUCGUUUGUUUGAUCUGAAAUAUUCAGGUCUGCAGAUCGGAAGAGCACACGU
B4: target 3 insG 3' of 6,insC 3' of 4 (mixed)
RNA 1: CACCCGUGCAAAAUUGCAGGGGUCUAAAACGACCUGAAUAUUUCAGAUCAAA
RNA 2: GGGAAUGGAUCCACAUCUACGAAUUCGUUUUUGAUCUGAAAUAUUCGAGCGUCUGCAGAUCGGAAGAGCACACGU
B5: target 3 insG 3' of 22,insG 3' of 6 (mixed)
RNA 1: CACCCGUGCAAAAUUGCAGGGGUCUAAAACGACCUGAAUAUUUCAGAUCAAA
RNA 2: GGGAAUGGAUCCACAUCUACGAAUUCGUUUGUUGAUCUGAAAUAUUCGAGGUCUGCAGAUCGGAAGAGCACACGU
B6: target 3 insC 3' of 21,insG 3' of 6 (mixed)
RNA 1: CACCCGUGCAAAAUUGCAGGGGUCUAAAACGACCUGAAUAUUUCAGAUCAAA
RNA 2: GGGAAUGGAUCCACAUCUACGAAUUCGUUUUCUGAUCUGAAAUAUUCGAGGUCUGCAGAUCGGAAGAGCACACGU
B7: target 3 insG 3' of 7,insC 3' of 4 (mixed)
RNA 1: CACCCGUGCAAAAUUGCAGGGGUCUAAAACGACCUGAAUAUUUCAGAUCAAA
RNA 2: GGGAAUGGAUCCACAUCUACGAAUUCGUUUUUGAUCUGAAAUAUUGCAGCGUCUGCAGAUCGGAAGAGCACACGU
B8: target 1 U8A (mixed)
RNA 1: CACCCGUGCAAAAAUGCAGGGGUCUAAAACUGAGCGGAUAACCUCUCUAUGG
RNA 2: GGGAAUGGAUCCACAUCUACGAAUUCGUACCAUAGAGAGGUUAACCGCUCACCGAGAUCGGAAGAGCACACGU
B9: target 3 insU 3' of 9,insC 3' of 7 (mixed)
RNA 1: CACCCGUGCAAAAUUGCAGGGGUCUAAAACGACCUGAAUAUUUCAGAUCAAA
RNA 2: GGGAAUGGAUCCACAUCUACGAAUUCGUUUUUGAUCUGAAAUAUUUCCAGGUCUGCAGAUCGGAAGAGCACACGU
B10: target 3 C6G,A11C (mixed)
RNA 1: CACCCGUGCAAAAUUGCAGGGGUCUAAAACGACCUGAAUAUUUCAGAUCAAA
RNA 2: GGGAAUGGAUCCACAUCUACGAAUUCGUUUUUGAUCUGAACUAUUGAGGUCUGCAGAUCGGAAGAGCACACGU
B11: target 3 insA 3' of 6,insA 3' of 4 (mixed)
RNA 1: CACCCGUGCAAAAUUGCAGGGGUCUAAAACGACCUGAAUAUUUCAGAUCAAA
RNA 2: GGGAAUGGAUCCACAUCUACGAAUUCGUUUUUGAUCUGAAAUAUUCAAGAGUCUGCAGAUCGGAAGAGCACACGU
B12: target 3 insG 3' of 8,insU 3' of 6 (mixed)
RNA 1: CACCCGUGCAAAAUUGCAGGGGUCUAAAACGACCUGAAUAUUUCAGAUCAAA
RNA 2: GGGAAUGGAUCCACAUCUACGAAUUCGUUUUUGAUCUGAAAUAUGUCUAGGUCUGCAGAUCGGAAGAGCACACGU
B13: target 3 insA 3' of 10,insG 3' of 2 (mixed)
RNA 1: CACCCGUGCAAAAUUGCAGGGGUCUAAAACGACCUGAAUAUUUCAGAUCAAA
RNA 2: GGGAAUGGAUCCACAUCUACGAAUUCGUUUUUGAUCUGAAAUAAUUCAGGUGCUGCAGAUCGGAAGAGCACACGU
B14: target 1 A1C,U8A (mixed)
RNA 1: CACCCGUGCAAAAAUGCAGGGGUCUAAAACUGAGCGGAUAACCUCUCUAUGG
RNA 2: GGGAAUGGAUCCACAUCUACGAAUUCGUACCAUAGAGAGGUUAACCGCUCCCCGAGAUCGGAAGAGCACACGU
B15: target 1 U3A,C7A (mixed)
RNA 1: CACCCGUGCAAAAAUGCAGGGGUCUAAAACUGAGCGGAUAACCUCUCUAUGG
RNA 2: GGGAAUGGAUCCACAUCUACGAAUUCGUACCAUAGAGAGGUUAUACGCACACCGAGAUCGGAAGAGCACACGU
B16: target 1 U8C,A20U (mixed)
RNA 1: CACCCGUGCAAAAAUGCAGGGGUCUAAAACUGAGCGGAUAACCUCUCUAUGG
RNA 2: GGGAAUGGAUCCACAUCUACGAAUUCGUACCUUAGAGAGGUUACCCGCUCACCGAGAUCGGAAGAGCACACGU
B17: target 1 insU 3' of 15,insG 3' of 7 (mixed)
RNA 1: CACCCGUGCAAAAAUGCAGGGGUCUAAAACUGAGCGGAUAACCUCUCUAUGG
RNA 2: GGGAAUGGAUCCACAUCUACGAAUUCGUACCAUAGAGUAGGUUAUCGCGCUCACCGAGAUCGGAAGAGCACACGU
B18: target 1 G15C,A16G (mixed)
RNA 1: CACCCGUGCAAAAAUGCAGGGGUCUAAAACUGAGCGGAUAACCUCUCUAUGG
RNA 2: GGGAAUGGAUCCACAUCUACGAAUUCGUACCAUAGGCAGGUUAUCCGCUCACCGAGAUCGGAAGAGCACACGU
B19: target 1 U3C,U8G (mixed)
RNA 1: CACCCGUGCAAAAAUGCAGGGGUCUAAAACUGAGCGGAUAACCUCUCUAUGG
RNA 2: GGGAAUGGAUCCACAUCUACGAAUUCGUACCAUAGAGAGGUUAGCCGCCCACCGAGAUCGGAAGAGCACACGU
B20: target 1 U3C,G5A (mixed)
RNA 1: CACCCGUGCAAAAAUGCAGGGGUCUAAAACUGAGCGGAUAACCUCUCUAUGG
RNA 2: GGGAAUGGAUCCACAUCUACGAAUUCGUACCAUAGAGAGGUUAUCCACCCACCGAGAUCGGAAGAGCACACGU
B21: target 1 G12U,C21U (mixed)
RNA 1: CACCCGUGCAAAAAUGCAGGGGUCUAAAACUGAGCGGAUAACCUCUCUAUGG
RNA 2: GGGAAUGGAUCCACAUCUACGAAUUCGUACUAUAGAGAGUUUAUCCGCUCACCGAGAUCGGAAGAGCACACGU
B22: target 1 insG 3' of 19,insG 3' of 9 (mixed)
RNA 1: CACCCGUGCAAAAAUGCAGGGGUCUAAAACUGAGCGGAUAACCUCUCUAUGG
RNA 2: GGGAAUGGAUCCACAUCUACGAAUUCGUACCAUGAGAGAGGUUAGUCCGCUCACCGAGAUCGGAAGAGCACACGU
B23: target 1 C7U,U11C (mixed)
RNA 1: CACCCGUGCAAAAAUGCAGGGGUCUAAAACUGAGCGGAUAACCUCUCUAUGG
RNA 2: GGGAAUGGAUCCACAUCUACGAAUUCGUACCAUAGAGAGGCUAUUCGCUCACCGAGAUCGGAAGAGCACACGU
B24: target 1 insA 3' of 15,insG 3' of 11 (mixed)
RNA 1: CACCCGUGCAAAAAUGCAGGGGUCUAAAACUGAGCGGAUAACCUCUCUAUGG
RNA 2: GGGAAUGGAUCCACAUCUACGAAUUCGUACCAUAGAGAAGGUGUAUCCGCUCACCGAGAUCGGAAGAGCACACGU
B25: target 1 insC 3' of 19,insU 3' of 15 (mixed)
RNA 1: CACCCGUGCAAAAAUGCAGGGGUCUAAAACUGAGCGGAUAACCUCUCUAUGG
RNA 2: GGGAAUGGAUCCACAUCUACGAAUUCGUACCAUCAGAGUAGGUUAUCCGCUCACCGAGAUCGGAAGAGCACACGU
B26: target 1 insC 3' of 17,insG 3' of 1 (mixed)
RNA 1: CACCCGUGCAAAAAUGCAGGGGUCUAAAACUGAGCGGAUAACCUCUCUAUGG
RNA 2: GGGAAUGGAUCCACAUCUACGAAUUCGUACCAUAGCAGAGGUUAUCCGCUCAGCCGAGAUCGGAAGAGCACACGU
B27: target 1 U3G,G17A (mixed)
RNA 1: CACCCGUGCAAAAAUGCAGGGGUCUAAAACUGAGCGGAUAACCUCUCUAUGG
RNA 2: GGGAAUGGAUCCACAUCUACGAAUUCGUACCAUAAAGAGGUUAUCCGCGCACCGAGAUCGGAAGAGCACACGU
B28: target 1 insU 3' of 13,insC 3' of 11 (mixed)
RNA 1: CACCCGUGCAAAAAUGCAGGGGUCUAAAACUGAGCGGAUAACCUCUCUAUGG
RNA 2: GGGAAUGGAUCCACAUCUACGAAUUCGUACCAUAGAGAGUGUCUAUCCGCUCACCGAGAUCGGAAGAGCACACGU

Molecular target: T1, EsCas13d, nuclease-dead
Assay: crRNA (strand 1, pre-loaded); Mg2+; 40 mM Tris-HCl pH 7.5, 150 mM NaCl, 6 mM MgCl2, 1 mM DTT, 0.1% Tween-20, 0.2 mg/ml BSA; 25 C; 10 min per concentration, then washed
Details: tags: His6-TwinStrep-SUMO cleaved; N-terminal SNAP kept (SNAP-Surface 488); label: 3' end held by stalled T7 RNA polymerase

How did the Kd turn out when B1 was run?
Its Kd is 18.1 ± 2.95 nM.

With B2 as the binder, how does the Kd read?
Its Kd is roughly 110 nM.

Which Kd does the source give for B3 here?
Its Kd is 28 ± 4.5 nM.

With B4 as the binder, how does the Kd read?
The Kd was 13.2 ± 1.5 nM.

With B5 as the binder, how does the Kd read?
The Kd was 90 ± 41.5 nM.

B6 was tested. Which Kd did it give?
The Kd was 100 ± 40 nM.

With B7 as the binder, how does the Kd read?
The Kd was 64 ± 8 nM.

How did the Kd turn out when B8 was run?
The Kd was 22.2 ± 1.7 nM.

With B9 as the binder, how does the Kd read?
The Kd was 100 ± 21 nM.

With B10 as the binder, how does the Kd read?
The Kd was 30.1 ± 4.65 nM.

Which Kd does the source give for B11 here?
Its Kd is 10.8 ± 0.9 nM.

How did the Kd turn out when B12 was run?
The Kd was 28.3 ± 3.3 nM.

With B13 as the binder, how does the Kd read?
Its Kd is 42 ± 6.5 nM.

B14 was tested. Which Kd did it give?
Its Kd is 25.5 ± 1.8 nM.

How did the Kd turn out when B15 was run?
The Kd was 7 ± 0.4 nM.

For B16, which Kd is on record?
The Kd was 80 ± 8 nM.

B17 was tested. Which Kd did it give?
The Kd was 10.7 ± 0.4 nM.

B18 was tested. Which Kd did it give?
Its Kd is 71 ± 11 nM.

B19 was tested. Which Kd did it give?
Its Kd is 18.6 ± 1.2 nM.

How did the Kd turn out when B20 was run?
The Kd was 67 ± 22 nM.

How did the Kd turn out when B21 was run?
Its Kd is 7.4 ± 0.5 nM.

B22 was tested. Which Kd did it give?
The Kd was 44 ± 5 nM.

How did the Kd turn out when B23 was run?
Its Kd is 8.7 ± 0.4 nM.

Which Kd does the source give for B24 here?
Its Kd is 24 ± 4 nM.

How did the Kd turn out when B25 was run?
The Kd was 62 ± 26 nM.

B26 was tested. Which Kd did it give?
Its Kd is 44 ± 16 nM.

Which Kd does the source give for B27 here?
The Kd was 37 ± 4 nM.

Which Kd does the source give for B28 here?
Its Kd is 29 ± 7 nM.
